Results as given in article PMC3136511.

Target: Nup145N(443–605) (Saccharomyces cerevisiae) (UniProt P49687)
Assay: SAXS

Substance: Nup145N(443–605) (from UniProt P49687 443-605) (domain or fragment)
- dimer fraction: 98%
- stoichiometry N: 2
